Test results from PMC12533369, “Citrullination of AKT2 Catalyzed by PAD1 Facilitates the Maintenance of Stemness Characteristics of Ovarian Cancer Stem‐Like Cells in Ovarian Cancer” (Advanced Science, 2025).

T1: GST-tagged PAD1 (human, UniProt Q9ULC6 1-663)
T1 construct: peptidylarginine deiminase 1 (PAD1), recombinant human; also called GST-PAD1; recombinant human PAD1; source: recombinant
T1 sequence (looked up): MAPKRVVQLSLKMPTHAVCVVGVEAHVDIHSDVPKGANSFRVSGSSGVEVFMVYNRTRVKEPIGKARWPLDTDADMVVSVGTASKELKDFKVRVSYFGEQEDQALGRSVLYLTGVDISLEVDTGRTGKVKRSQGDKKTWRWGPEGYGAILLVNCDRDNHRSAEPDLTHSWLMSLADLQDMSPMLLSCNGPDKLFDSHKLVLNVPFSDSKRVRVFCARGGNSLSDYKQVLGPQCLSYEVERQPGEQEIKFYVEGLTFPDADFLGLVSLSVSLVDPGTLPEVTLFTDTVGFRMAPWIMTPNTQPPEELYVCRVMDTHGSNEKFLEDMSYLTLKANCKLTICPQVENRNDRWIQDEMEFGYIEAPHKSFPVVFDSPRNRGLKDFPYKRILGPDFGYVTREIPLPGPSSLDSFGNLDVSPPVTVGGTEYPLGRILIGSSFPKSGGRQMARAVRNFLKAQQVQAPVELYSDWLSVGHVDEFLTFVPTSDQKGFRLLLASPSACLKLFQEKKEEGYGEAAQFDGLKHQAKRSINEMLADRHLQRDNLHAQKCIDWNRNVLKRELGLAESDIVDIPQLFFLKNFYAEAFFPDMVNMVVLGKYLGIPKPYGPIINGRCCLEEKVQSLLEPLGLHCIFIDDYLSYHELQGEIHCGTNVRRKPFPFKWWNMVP

B1: His-tagged full-length AKT2 (enzyme, UniProt P31751 1-481, looked up)
chain: MNEVSVIKEGWLHKRGEYIKTWRPRYFLLKSDGSFIGYKERPEAPDQTLPPLNNFSVAECQLMKTERPRPNTFVIRCLQWTTVIERTFHVDSPDEREEWMRAIQMVANSLKQRAPGEDPMDYKCGSPSDSSTTEEMEVAVSKARAKVTMNDFDYLKLLGKGTFGKVILVREKATGRYYAMKILRKEVIIAKDEVAHTVTESRVLQNTRHPFLTALKYAFQTHDRLCFVMEYANGGELFFHLSRERVFTEERARFYGAEIVSALEYLHSRDVVYRDIKLENLMLDKDGHIKITDFGLCKEGISDGATMKTFCGTPEYLAPEVLEDNDYGRAVDWWGLGVVMYEMMCGRLPFYNQDHERLFELILMEEIRFPRTLSPEAKSLLAGLLKKDPKQRLGGGPSDAKEVMEHRFFLSINWQDVVQKKLLPPFKPQVTSEVDTRYFDDEFTAQSITITPPDRYDSLGLLELDQRTHFPQFSYSASIRE
notes: AKT2, full length; whether 'human' also covers AKT2 is not clear; also called His-AKT2 (full length); source: purified
B2: His-AKT2 (kinase domain) (domain or fragment, UniProt P31751 152-481, looked up)
chain: FDYLKLLGKGTFGKVILVREKATGRYYAMKILRKEVIIAKDEVAHTVTESRVLQNTRHPFLTALKYAFQTHDRLCFVMEYANGGELFFHLSRERVFTEERARFYGAEIVSALEYLHSRDVVYRDIKLENLMLDKDGHIKITDFGLCKEGISDGATMKTFCGTPEYLAPEVLEDNDYGRAVDWWGLGVVMYEMMCGRLPFYNQDHERLFELILMEEIRFPRTLSPEAKSLLAGLLKKDPKQRLGGGPSDAKEVMEHRFFLSINWQDVVQKKLLPPFKPQVTSEVDTRYFDDEFTAQSITITPPDRYDSLGLLELDQRTHFPQFSYSASIRE
notes: AKT2 residues 152-481, the truncated variant that the text calls the kinase domain; also called His-tagged AKT2 (152–481 aa); source: purified

Biological target: T1, GST-tagged PAD1
Assay: pull-down; GST pull-down: purified His-tagged AKT2 (full length or truncated) incubated with GST-tagged PAD1 or GST alone
Conditions: both partners purified

| Binder | binding result |
| --- | --- |
| B1 | binds |
| B2 | binds |
